Several values for one entry are separate records, joined by “and”; a condition that tells them apart may be missing. Equal entries are not always repeated.
Key:
[1] = biological target: Hp of the Hp(2)Ab(1) complex; assay: native MS; tandem MS with increasing collisional energy of the bait-target complex Hp(2)Hb(4)Ab(1), Hb as bait
[2] = biological target: T1, Thermoplasma acidophilum 20S proteasome β subunit with Twin-Strep-tag (Thermoplasma acidophilum, UniProt P28061 9-211); assay: native MS; 20S purified with Strep-Tactin SNAP beads, α and β coded in the same plasmid; 150 mM ammonium acetate; conditions: partners not purified
T1 construct: 20S proteasome β subunit of Thermoplasma acidophilum; not shown: Twin-Strep-tag, C-terminal, kept
T1 sequence (looked up): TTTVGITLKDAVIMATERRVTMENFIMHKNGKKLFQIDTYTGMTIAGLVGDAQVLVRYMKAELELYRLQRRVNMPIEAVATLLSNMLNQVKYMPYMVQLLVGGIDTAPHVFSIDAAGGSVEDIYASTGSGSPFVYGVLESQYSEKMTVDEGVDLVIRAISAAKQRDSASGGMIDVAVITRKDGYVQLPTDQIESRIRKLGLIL

[3] = biological target: the molecule itself; assay: native MS; 20S purified with Strep-Tactin SNAP beads, α and β expressed from two separate plasmids; 150 mM ammonium acetate

Molecule | stoichiometry N [1] | stoichiometry N [2] | stoichiometry N [3]
Hp of the Hp(2)Ab(1) complex | 2 | – | –
Thermoplasma acidophilum 20S proteasome α subunit, unmodified (natural protein, UniProt P25156 1-233, looked up, 20S proteasome α subunit of Thermoplasma acidophilum; The results call this α subunit unmodified; the methods say that the constructs were tagged at the C-termini with either a Twin-Strep-tag or a His tag) MQQGQMAYDRAITVFSPDGRLFQVEYAREAVKKGSTALGMKFANGVLLISDKKVRSRLIEQNSIEKIQLIDDYVAAVTSGLVADARVLVDFARISAQQEKVTYGSLVNIENLVKRVADQMQQYTQYGGVRPYGVSLIFAGIDQIGPRLFDCDPAGTINEYKATAIGSGKDAVVSFLEREYKENLPEKEAVTLGIKALKSSLEEGEELKAPEIASITVGNKYRIYDQEEVKKFL | – | 28 subunits in the complex of α and β | 7 and 14

Source: article PMC11452662, “Biofunctionalized dissolvable hydrogel microbeads enable efficient characterization of native protein complexes” (Nature Communications, 2024)
